Experimental data from the Immune Epitope Database (IEDB).

Columns and labels:
HLA-B*15:01 [1] = experiment: IEDB peptide-MHC binding, purified MHC/competitive/fluorescence; ≥ and ≤ were set here for values at or beyond the usual limits of such assays
HLA-A*02:01 [2] = experiment: as above
HLA-A*24:02 [3] = experiment: as above
HLA-B*07:02 = experiment: as above; conditions: source organism: Zaire ebolavirus
HLA-A*68:02 [4] = experiment: IEDB peptide-MHC binding, purified MHC/competitive/fluorescence; filed as Kd, often an IC50 or EC50 that approximates it; ≥ and ≤ were set here for values at or beyond the usual limits of such assays
HLA-B*18:01 = experiment: as above
HLA-B*57:01 = experiment: as above
HLA-A*02:12 [5] = experiment: as above
HLA-B*15:01 [6] = experiment: as above
HLA-A*02:01 [7] = experiment: as above
HLA-A*69:01 = experiment: as above
HLA-B*51:01 = experiment: as above
HLA-A*23:01 [8] = experiment: as above
HLA-B*27:03 = experiment: as above
HLA-B*46:01 = experiment: as above
HLA-A*29:02 [9] = experiment: as above
HLA-A*02:03 [10] = experiment: as above
HLA-B*39:01 = experiment: as above
HLA-A*26:01 [11] = experiment: as above
HLA-A*02:11 [12] = experiment: as above
HLA-B*15:17 = experiment: as above
HLA-A*02:16 [13] = experiment: as above
HLA-A*02:19 [14] = experiment: as above
HLA-A*24:03 [15] = experiment: as above
HLA-A*03:01 [16] = experiment: as above
HLA-A*01:01 = experiment: IEDB peptide-MHC binding, purified MHC/competitive/fluorescence; ≥ and ≤ were set here for values at or beyond the usual limits of such assays; conditions: source organism: Zaire ebolavirus
HLA-A*68:02 [17] = experiment: IEDB peptide-MHC binding, purified MHC/direct/fluorescence; filed as Kd, often an IC50 or EC50 that approximates it; ≥ and ≤ were set here for values at or beyond the usual limits of such assays
HLA-A*02:12 [18] = experiment: as above
HLA-A*23:01 [19] = experiment: as above
HLA-A*29:02 [20] = experiment: as above
HLA-A*02:03 [21] = experiment: as above
HLA-A*26:01 [22] = experiment: as above; conditions: source organism: Zaire ebolavirus
HLA-A*02:11 [23] = experiment: as above
HLA-A*02:16 [24] = experiment: as above
HLA-A*02:19 [25] = experiment: as above
HLA-A*24:03 [26] = experiment: as above
HLA-A*03:01 [27] = experiment: as above
HLA-B*08:01 = experiment: IEDB peptide-MHC binding, purified MHC/competitive/fluorescence; ≥ and ≤ were set here for values at or beyond the usual limits of such assays
HLA-A*24:02 [28] = experiment: IEDB peptide-MHC binding, purified MHC/competitive/fluorescence; filed as Kd, often an IC50 or EC50 that approximates it; ≥ and ≤ were set here for values at or beyond the usual limits of such assays
HLA-B*27:05 = experiment: as above; conditions: source organism: Orthohantavirus dobravaense
[29] = source organism: Zaire ebolavirus
[30] = source organism: Coxiella burnetii 'MSU Goat Q177'
[31] = source organism: Vaccinia virus WR
[32] = source organism: Vibrio parahaemolyticus RIMD 2210633
[33] = source organism: Vaccinia virus
[34] = source organism: Orthohantavirus sangassouense
[35] = source organism: Orthohantavirus dobravaense
[36] = source organism: Yersinia pestis Nepal516

Sequence: AQPKCNPNL
- IC50 (HLA-B*15:01 [1]; [29]): ≥ 93.5 µM
- IC50 (HLA-A*02:01 [2]; [29]): 47.6 µM
- IC50 (HLA-A*24:02 [3]; [29]): 12.1 µM
- IC50 (HLA-B*07:02): ≥ 121 µM

Sequence: AVDWYQQRI
- Kd (HLA-A*68:02 [4]; [30]): ≥ 20 µM
- Kd (HLA-B*18:01; [30]): ≥ 20 µM
- Kd (HLA-B*57:01; [30]): ≥ 20 µM
- Kd (HLA-A*02:12 [5]; [30]): ≥ 20 µM
- Kd (HLA-B*15:01 [6]; [30]): ≥ 20 µM
- Kd (HLA-A*02:01 [7]; [30]): ≥ 20 µM
- Kd (HLA-A*69:01; [30]): ≥ 20 µM
- Kd (HLA-B*51:01; [30]): ≥ 20 µM
- Kd (HLA-A*23:01 [8]; [30]): ≥ 20 µM
- Kd (HLA-B*27:03; [30]): ≥ 20 µM
- Kd (HLA-B*46:01; [30]): ≥ 20 µM
- Kd (HLA-A*29:02 [9]; [30]): ≥ 20 µM
- Kd (HLA-A*02:03 [10]; [30]): ≥ 20 µM
- Kd (HLA-B*39:01; [30]): ≥ 20 µM
- Kd (HLA-A*26:01 [11]; [30]): ≥ 20 µM
- Kd (HLA-A*02:11 [12]; [30]): ≥ 20 µM
- Kd (HLA-B*15:17; [30]): ≥ 20 µM
- Kd (HLA-A*02:16 [13]; [30]): 0.36 µM
- Kd (HLA-A*02:19 [14]; [30]): ≥ 20 µM
- Kd (HLA-A*24:03 [15]; [30]): ≥ 20 µM
- Kd (HLA-A*03:01 [16]; [30]): ≥ 20 µM

Sequence: EAEKQLQQY
- IC50 (HLA-A*01:01): 18.1 µM
- Kd (HLA-A*68:02 [17]; [29]): ≥ 20 µM
- Kd (HLA-A*02:12 [18]; [29]): ≥ 20 µM
- Kd (HLA-A*23:01 [19]; [29]): ≥ 20 µM
- Kd (HLA-A*29:02 [20]; [29]): ≥ 20 µM
- Kd (HLA-A*02:03 [21]; [29]): ≥ 20 µM
- Kd (HLA-A*26:01 [22]): 2240 nM
- Kd (HLA-A*02:11 [23]; [29]): ≥ 20 µM
- Kd (HLA-A*02:16 [24]; [29]): ≥ 20 µM
- Kd (HLA-A*02:19 [25]; [29]): ≥ 20 µM
- Kd (HLA-A*24:03 [26]; [29]): ≥ 20 µM
- Kd (HLA-A*03:01 [27]; [29]): ≥ 20 µM
- Kd (HLA-B*18:01; [29]): ≥ 20 µM
- Kd (HLA-B*57:01; [29]): ≥ 20 µM
- Kd (HLA-B*15:01 [6]; [29]): ≥ 20 µM
- Kd (HLA-A*02:01 [7]; [29]): ≥ 20 µM
- Kd (HLA-A*69:01; [29]): ≥ 20 µM
- Kd (HLA-B*51:01; [29]): ≥ 20 µM
- Kd (HLA-B*27:03; [29]): ≥ 20 µM
- Kd (HLA-B*46:01; [29]): ≥ 20 µM
- Kd (HLA-B*39:01; [29]): ≥ 20 µM
- Kd (HLA-B*15:17; [29]): ≥ 20 µM

Sequence: FGLYKSINV
- IC50 (HLA-A*02:01 [2]; [31]): 0.744 µM
- IC50 (HLA-B*08:01; [31]): 37 µM

Sequence: GTVPTDNPF
- Kd (HLA-A*68:02 [4]; [32]): ≥ 20 µM
- Kd (HLA-B*18:01; [32]): ≥ 20 µM
- Kd (HLA-B*57:01; [32]): 5.47 µM
- Kd (HLA-A*02:12 [5]; [32]): ≥ 20 µM
- Kd (HLA-A*02:01 [7]; [32]): ≥ 20 µM
- Kd (HLA-A*69:01; [32]): ≥ 20 µM
- Kd (HLA-B*51:01; [32]): ≥ 20 µM
- Kd (HLA-A*23:01 [8]; [32]): ≥ 20 µM
- Kd (HLA-B*27:03; [32]): ≥ 20 µM
- Kd (HLA-B*46:01; [32]): ≥ 20 µM
- Kd (HLA-A*02:03 [10]; [32]): ≥ 20 µM
- Kd (HLA-B*39:01; [32]): ≥ 20 µM
- Kd (HLA-A*26:01 [11]; [32]): ≥ 20 µM
- Kd (HLA-A*02:11 [12]; [32]): ≥ 20 µM
- Kd (HLA-A*02:16 [13]; [32]): ≥ 20 µM
- Kd (HLA-A*02:19 [14]; [32]): ≥ 20 µM
- Kd (HLA-A*24:03 [15]; [32]): ≥ 20 µM
- Kd (HLA-A*03:01 [16]; [32]): ≥ 20 µM

Sequence: IDILRSLET
- IC50 (HLA-A*02:01 [2]; [33]): 44.3 µM
- IC50 (HLA-B*08:01; [33]): ≥ 514 µM

Sequence: ITPKTHFLF
- Kd (HLA-A*24:02 [28]; source organism: Giardia intestinalis ATCC 50581): 0.2 nM

Sequence: IWGGTSFLF
- Kd (HLA-A*24:02 [28]; source organism: Salmonella enterica subsp. enterica serovar Typhi): ≤ 0.1 nM

Sequence: KHHTKIDSM
- IC50 (HLA-A*24:02 [3]; source organism: Variola virus): 1.69 µM
- IC50 (HLA-B*08:01; source organism: Variola virus): ≥ 209 µM

Sequence: MRNTIMASK
- Kd (HLA-A*68:02 [17]; [34]): ≥ 20 µM
- Kd (HLA-A*02:12 [18]; [34]): ≥ 20 µM
- Kd (HLA-A*23:01 [19]; [34]): ≥ 20 µM
- Kd (HLA-A*29:02 [20]; [34]): ≥ 20 µM
- Kd (HLA-A*02:03 [21]; [34]): ≥ 20 µM
- Kd (HLA-A*02:11 [23]; [34]): ≥ 20 µM
- Kd (HLA-A*02:16 [24]; [34]): ≥ 20 µM
- Kd (HLA-A*02:19 [25]; [34]): ≥ 20 µM
- Kd (HLA-A*24:03 [26]; [34]): ≥ 20 µM
- Kd (HLA-A*03:01 [27]; [34]): ≥ 20 µM
- Kd (HLA-B*18:01; [35]): ≥ 20 µM
- Kd (HLA-B*57:01; [35]): ≥ 20 µM
- Kd (HLA-B*15:01 [6]; [35]): ≥ 20 µM
- Kd (HLA-A*02:01 [7]; [35]): ≥ 20 µM
- Kd (HLA-A*69:01; [35]): ≥ 20 µM
- Kd (HLA-B*51:01; [35]): ≥ 20 µM
- Kd (HLA-B*27:05): 144 nM
- Kd (HLA-B*46:01; [35]): ≥ 20 µM
- Kd (HLA-B*39:01; [35]): ≥ 20 µM
- Kd (HLA-A*26:01 [11]; [35]): ≥ 20 µM
- Kd (HLA-B*15:17; [35]): ≥ 20 µM

Sequence: RQLAKAIIT
- IC50 (HLA-B*15:01 [1]; source organism: Vaccinia virus Copenhagen): 40.8 µM

Sequence: SFERFEIF
- Kd (HLA-A*24:02 [28]; source organism: Influenza A virus (A/Harbin/1/1988(H1N2))): 237 nM

Sequence: VSHLTTLAT
- IC50 (HLA-B*15:01 [1]; [29]): 28.7 µM
- IC50 (HLA-A*02:01 [2]; [29]): ≥ 719 µM

Sequence: YADGGQWYN
- Kd (HLA-A*68:02 [4]; [36]): ≥ 20 µM
- Kd (HLA-B*18:01; [36]): ≥ 20 µM
- Kd (HLA-B*57:01; [36]): ≥ 20 µM
- Kd (HLA-A*02:12 [5]; [36]): ≥ 20 µM
- Kd (HLA-B*15:01 [6]; [36]): ≥ 20 µM
- Kd (HLA-A*02:01 [7]; [36]): ≥ 20 µM
- Kd (HLA-A*69:01; [36]): ≥ 20 µM
- Kd (HLA-A*23:01 [8]; [36]): ≥ 20 µM
- Kd (HLA-B*27:03; [36]): ≥ 20 µM
- Kd (HLA-B*46:01; [36]): ≥ 20 µM
- Kd (HLA-A*29:02 [9]; [36]): ≥ 20 µM
- Kd (HLA-A*02:03 [10]; [36]): ≥ 20 µM
- Kd (HLA-B*39:01; [36]): ≥ 20 µM
- Kd (HLA-A*26:01 [11]; [36]): ≥ 20 µM
- Kd (HLA-A*02:11 [12]; [36]): 0.0562 µM
- Kd (HLA-B*15:17; [36]): ≥ 20 µM
- Kd (HLA-A*02:16 [13]; [36]): ≥ 20 µM
- Kd (HLA-A*02:19 [14]; [36]): ≥ 20 µM
- Kd (HLA-A*24:03 [15]; [36]): ≥ 20 µM
- Kd (HLA-A*03:01 [16]; [36]): ≥ 20 µM

Sequence: YQSYSENGM
- IC50 (HLA-B*15:01 [1]; [29]): 16.7 µM
- IC50 (HLA-A*02:01 [2]; [29]): 27.9 µM
